Assay results published in US20030059769, “High affinity nucleic acid ligands to lectins” (published 2003).

B1: LF1613 (ssRNA)
RNA: GGGAGGACGAUGCGGUGCUAUUCUUAAGCGGCGUGUUUUUCAAGCCAAUAUCAUCAGACGACUCGCCCGA
modifications: 2'-F on all C and U
B2: LF1807 (ssRNA)
RNA: GGGAGGACGAUGCGGAGUCUUAGGCAGCGCGUUUUCGAGCUACUCCAUCGCCAGUCAGACGACUCGCCCGA
modifications: 2'-F on all C and U
B3: LF1514 (ssRNA)
RNA: GGGAGGACGAUGCGGUACCUCAAAUUGCGUGUUUUCAAGCAGUAUCAGACGACUCGCCCGA
modifications: 2'-F on all C and U
B4: LF1513 (ssRNA)
RNA: GGGAGGACGAUGCGGGCUCUUCAGCAACGUGUUAUCAAGUUAGCCCAGACGACUCGCCCGA
modifications: 2'-F on all C and U
B5: LF1811 (ssRNA)
RNA: GGGAGGACGAUGCGGUAAUCUCUUAGGCAUCGCGUUAAUCGAGAUAGAUCACCGUCAGACGACUCGCCCGA
modifications: 2'-F on all C and U
B6: LF1523 (ssRNA)
RNA: GGGAGGACGAUGCGGUUCUUAAGCAGCGCGUCAAUCGAGCUAACCCAGACGACUCGCCCGA
modifications: 2'-F on all C and U
B7: LF1615 (ssRNA)
RNA: GGGAGGACGAUGCGGCGUAACUUCAGCGGUGUGUUAAUCAAGCCUUACGCCAUCUCAGACGACUCGCCCGA
modifications: 2'-F on all C and U
B8: LF1518 (ssRNA)
RNA: GGGAGGACGAUGCGGGCAAAUUGCAUGCGUUUUCGAGUGCUUGCUCAGACGACUCGCCCGA
modifications: 2'-F on all C and U
B9: LF1508 (ssRNA)
RNA: GGGAGGACGAUGCGGGACCCUUAGGCAACGUGUUUUCAAGUUGGUCAGACGACUCGCCCGA
modifications: 2'-F on all C and U
B10: LF1610 (ssRNA)
RNA: GGGAGGACGAUGCGGAGGGUCUUAAGCAGUGUGAUAAUCAAACUACUCUCCGUGUCAGACGACUCGCCCGA
modifications: 2'-F on all C and U
B11: PF411 (ssRNA)
RNA: GGGAGACAAGAAUAAACGCUCAACAACCCAACCAUCUAGAGCUUCGAACCAUGGUAUACAAGGGAACACAAAAUUCGCGGAGGCUCCAACAGGCGGC
modifications: 2'-F on all C and U
B12: PF377M4 (ssRNA)
RNA: CUCAACGAGCCAGGAACAUCGACGUCAGCAAACGCGAG
modifications: 2'-F C and U; 2'-OMe G 7,9,13,14,21,24,28,36 and A 8,15,18,22,27,30,31,37 as listed

Tests used:
[1] = molecular target: T1, L-selectin (LS-Rg) (Homo sapiens, UniProt P14151 P14151:39-332); experiment: filter; 37 C, SHMCK-140; conditions: tags: human IgG2 Fc fusion, chain copies: dimer, label: 32P
T1 sequence: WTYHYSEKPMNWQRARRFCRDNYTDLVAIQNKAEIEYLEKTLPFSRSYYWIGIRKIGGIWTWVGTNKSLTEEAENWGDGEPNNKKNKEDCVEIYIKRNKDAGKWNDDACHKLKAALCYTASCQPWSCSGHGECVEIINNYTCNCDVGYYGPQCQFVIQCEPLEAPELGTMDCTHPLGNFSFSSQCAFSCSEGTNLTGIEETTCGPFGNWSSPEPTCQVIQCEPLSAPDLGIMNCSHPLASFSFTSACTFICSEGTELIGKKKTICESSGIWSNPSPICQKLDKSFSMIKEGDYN
Procedure: As described in SELEX Patent Applications, a nitrocellulose filter partitioning method was used to determine the affinity of RNA ligands for LS-Rg and for other proteins. Filter discs (nitrocellulose/cellulose acetate mixed matrix, 0.45 μm pore size, Millipore) were placed on a vacuum manifold and washed with 3 ml of SHMCK 140 buffer under vacuum. Reaction mixtures, containing ³²P labeled RNA pools and unlabeled LS-Rg, were incubated in SHMCK 140 for 10-20 min at 37° C., and then immediately washed with 3 ml SHMCK 140. The filters were air-dried and counted in a Beckman LS6500 liquid scintillation counter without fluor. Alternatively, binding studies employed 96 well micro-titer manifolds essentially as described in Example 13, paragraph E.
These calculations assume two ligand binding sites per chimera.

[2] = molecular target: T2, P-selectin (PS-Rg) (Homo sapiens, UniProt P16109 P16109:42-321); experiment: filter; 37 C, HSMC; conditions: tags: human IgG1 Fc fusion; chain copies: dimer; label: 32P
[3] = molecular target: T2, P-selectin (PS-Rg); experiment: filter; HSMC
[4] = molecular target: T2, P-selectin (PS-Rg); experiment: inhibition; sialyl-LewisX; conditions: tags: human IgG Fc fusion, chain copies: 2 (stated dimer)
Procedure: The ability of evolved RNA pools or cloned ligands to inhibit the binding of PS-Rg to sialyl-Lewis^x was tested in competitive ELISA assays (C. Foxall et al., 1992, supra). For these assays, the wells of Corning (25801) 96 well microtiter plates were coated with 100 ng of a sialyl-Lewis^x/BSA conjugate, air dried overnight, washed with 300 μl of PBS(−) and then blocked with 1% BSA in HSMC for 60 min at room temperature. RNA ligands were incubated with PS-Rg in HSMC/1% BSA at room temperature for 15 min. After removal of the blocking solution, 50 μl of PS-Rg (10 nM) or a PS-Rg (10 nM)/RNA ligand mix was added to the coated, blocked wells and incubated at room temperature for 60 minutes. The binding solution was removed, wells were washed with 300 μl of PBS(−) and then probed with HRP conjugated anti-human IgG, at room temperature to quantitate PS-Rg binding. After a 30 minute incubation at room temperature in the dark with OPD peroxidase substrate (Sigma P9187), the extent of PS-Rg binding and percent inhibition was determined from the OD₄₅₀.

[5] = tags: human IgG Fc fusion, chain copies: 2 (stated dimer)

T2 sequence (P16109 42-321, one chain of several): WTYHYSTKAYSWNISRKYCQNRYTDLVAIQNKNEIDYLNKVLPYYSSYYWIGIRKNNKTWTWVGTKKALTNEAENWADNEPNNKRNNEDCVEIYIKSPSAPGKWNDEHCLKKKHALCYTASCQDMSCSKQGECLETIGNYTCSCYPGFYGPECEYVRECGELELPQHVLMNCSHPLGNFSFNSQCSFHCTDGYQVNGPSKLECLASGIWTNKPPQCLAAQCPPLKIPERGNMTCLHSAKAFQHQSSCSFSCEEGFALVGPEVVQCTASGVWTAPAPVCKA

| Binder | Kd [1] | Kd [3, 5] | further results |
| --- | --- | --- | --- |
| B1 | 0.034 nM |  |  |
| B2 |  |  | Kd ([1]; hairpin with 7-nt bulge): 0.034 nM |
| B3 |  |  | Kd ([1]; hairpin with 7-nt bulge): 0.13 nM |
| B4 | 0.16 nM |  |  |
| B5 | 0.19 nM |  |  |
| B6 | 0.25 nM |  |  |
| B7 | 0.32 nM |  |  |
| B8 | 0.42 nM |  |  |
| B9 | 0.5 nM |  |  |
| B10 | 0.53 nM |  |  |
| B11 |  |  | Kd [2]: 0.013 nM |
| CUCAACGAGCCAGGAACAUCGACGUCAGCAAACGCGAG (ssRNA, 2'-F on all C and U; 2'-OMe purines at 11 positions) [PF377M6] |  |  | Kd ([3]; tags: human IgG1 Fc fusion, chain copies: dimer): 0.25 nM |
| CUCAACGAGCCAGGAACAUCGACGUCAGCAAACGCGAG (ssRNA, 2'-F C and U) [PF377s1F] |  |  | IC50 ([4]; label: fluorescein (inferred)): 3 nM; Kd ([3]; tags: human IgG Fc fusion, chain copies: 2 (stated dimer), label: fluorescein (inferred)): 0.06 nM |
| CUCAACGAGCCAGGAACAUCGACGUCAGCAAACGCGAG (ssRNA, 2'-F C and U, biotin) [PF377s1B] |  | 0.065 nM | IC50 [4]: 3 nM |
| CUCAACGAGCCAGGAACAUCGACGUCAGCAAACGCGAG (ssRNA, 2'-F C and U; 2'-OMe G7 G9 G14 G21 A8 A15 A18 A22 A27 A31) [PF377M1] |  | 0.12 nM |  |
| CACUCAACCGGCACCAGACUACGAUCAGCAUUGGCGAGUG (ssRNA, 2'-F C and U) [PF416s2] |  | 0.15 nM | IC50 [4]: 3 nM |
| CGCUCAACGAGCCAGGAACAUCGACGUCAGCAAACGCGAGCG (ssRNA, 2'-F C and U) [PF377s2] |  | 0.045 nM | IC50 [4]: 4 nM |
| CUCAACGAGCCAGGAACAUCGACGUCAGCAAACGCGAG (ssRNA, 2'-F C and U; 2'-OMe G 7,9,14,21,36 and A 8,15,18,22,27,31,37 as listed) [PF377M3] |  | 0.9 nM | IC50 [4]: 10 nM |
| B12 |  | 1.7 nM |  |
